{"source": "paper PMC6307106", "binders": {"B1": {"name": "PDR3 (structured_RNA)", "RNA": "GGGAGAGCGGAAGCGUGCUGGGCCUGCUCUUUAAUAAACCCACUUUCGAACAUCAGCGUAUGUCCAUAACCCAGAGGUGAUGGAUCCCCC", "modifications": "2'-F pyrimidines (2'F-U, 2'F-C)"}}, "key": {"[1]": {"target": "PDGFRβ (recombinant) (UniProt P09619 33-532)", "sequence (P09619 33-532)": "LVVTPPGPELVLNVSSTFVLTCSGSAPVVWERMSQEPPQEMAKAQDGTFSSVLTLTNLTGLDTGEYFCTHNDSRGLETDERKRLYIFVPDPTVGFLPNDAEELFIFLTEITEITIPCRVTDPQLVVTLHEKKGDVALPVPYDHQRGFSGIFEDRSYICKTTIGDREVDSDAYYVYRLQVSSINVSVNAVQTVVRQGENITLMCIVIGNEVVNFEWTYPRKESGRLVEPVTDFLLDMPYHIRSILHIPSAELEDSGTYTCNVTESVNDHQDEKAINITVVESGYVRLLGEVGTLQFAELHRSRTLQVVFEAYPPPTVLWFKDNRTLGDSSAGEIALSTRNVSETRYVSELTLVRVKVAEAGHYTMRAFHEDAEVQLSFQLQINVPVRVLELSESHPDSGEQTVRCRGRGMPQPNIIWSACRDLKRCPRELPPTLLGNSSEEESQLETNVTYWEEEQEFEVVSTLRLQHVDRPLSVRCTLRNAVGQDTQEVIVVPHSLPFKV", "assay": "SPR"}, "[2]": {"target": "PDGFRα extracellular domain (Homo sapiens, UniProt P16234 24-524)", "sequence (P16234 24-524)": "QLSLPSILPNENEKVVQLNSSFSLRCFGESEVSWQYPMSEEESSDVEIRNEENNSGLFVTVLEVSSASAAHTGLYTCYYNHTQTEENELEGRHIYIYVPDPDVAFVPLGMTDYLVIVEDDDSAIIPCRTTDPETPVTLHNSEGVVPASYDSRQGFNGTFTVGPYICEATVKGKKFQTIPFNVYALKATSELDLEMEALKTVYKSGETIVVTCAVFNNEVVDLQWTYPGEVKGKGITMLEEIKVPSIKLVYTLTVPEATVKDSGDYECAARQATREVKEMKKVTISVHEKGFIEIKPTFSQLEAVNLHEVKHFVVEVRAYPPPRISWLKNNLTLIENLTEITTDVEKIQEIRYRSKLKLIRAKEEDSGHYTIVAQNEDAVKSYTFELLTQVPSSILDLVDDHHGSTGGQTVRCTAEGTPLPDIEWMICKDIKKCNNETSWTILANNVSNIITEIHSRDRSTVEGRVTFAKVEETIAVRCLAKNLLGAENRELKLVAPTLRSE", "assay": "SPR"}}}
{"binder": "B1", "values": [{"measurement": "binding result", "setting": "[1]", "result": "no binding"}, {"measurement": "Kd", "setting": "[2]", "result": 0.25, "unit": "nM"}]}
